Experimental data reported in patent publication US20200308267A1 (Boehringer Ingelheim, published 2020).
Residue numbers refer to the chain shown, from its start. One block for each binder: values may come before it.

Columns and labels:
[1] = target: VEGF; assay: cell-based or functional assay
[2] = target: VEGF; assay: cell-based or functional assay; remark: listed apart in the source
[3] = target: T1, recombinant human VEGF165 (human, UniProt P15692-4 27-191, biotinylated (Sulfo-NHS-LC-Biotin) in the competition assays); assay: Biacore, periplasmic extract, VEGF165 chip, two phase decay fit; set-up: unit not given here
T1 construct: also called hVEGF165; rhVEGF165
Method: Dissociation rates of inhibitory VHHs are analyzed on Biacore (Biacore T100 instrument, GE Healthcare). HBS-EP+ buffer is used as running buffer and experiments are performed at 25° C. […] After immobilization, surfaces are deactivated with 10 min injection of 1 M ethanolamine pH8.5. A reference surface is activated and deactivated with respectively EDC/NHS and ethanolamine. Periplasmic extracts of VHHs are injected at a 10-fold dilution in running buffer for 2 min at 45 μl/min and allowed to dissociate for 10 or 15 min. Between different samples, the surfaces are regenerated with regeneration buffer. Data are double referenced by subtraction of the curves on the reference channel and of a blank running buffer injection. […] is evaluated by fitting a two phase decay model in the Biacore T100 Evaluation software v2.0.1.

T1 sequence (P15692 other isoform, or with tags, fused parts or gaps limits assumed): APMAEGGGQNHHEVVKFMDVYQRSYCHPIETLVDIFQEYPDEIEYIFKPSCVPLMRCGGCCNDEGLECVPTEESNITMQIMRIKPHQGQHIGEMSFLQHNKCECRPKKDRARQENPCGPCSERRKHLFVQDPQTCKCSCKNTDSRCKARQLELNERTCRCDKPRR
Sequence of VEGF (P15692 whole entry): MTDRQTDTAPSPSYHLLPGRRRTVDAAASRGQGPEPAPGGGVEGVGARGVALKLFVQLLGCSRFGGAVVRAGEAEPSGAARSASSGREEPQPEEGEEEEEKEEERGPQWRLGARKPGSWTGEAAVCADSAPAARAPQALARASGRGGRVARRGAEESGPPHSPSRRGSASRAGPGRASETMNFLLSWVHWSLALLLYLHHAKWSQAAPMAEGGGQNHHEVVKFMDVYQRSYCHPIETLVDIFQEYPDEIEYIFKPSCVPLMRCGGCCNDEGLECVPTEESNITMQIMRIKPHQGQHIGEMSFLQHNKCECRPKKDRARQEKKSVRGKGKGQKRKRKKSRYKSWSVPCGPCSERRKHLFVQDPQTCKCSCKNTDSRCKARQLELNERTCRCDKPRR

B1: VEGFBII010 (VHH, not shown: small tags and cut ends)
chain: EVQLVESGGGLVQTGDSLRLSCEVSGRTFSSYSMGWFRQAQGKEREFVVAISKGGYKYDSVSLEGRFTISKDNAKNTVYLQINSLKPEDTAVYYCASSRAYGSSRLRLADTYEYWGQGTQVTVSSGGGGSGGGGSGGGGSGGGGSGGGGSGGGGSGGGGSEVQLVESGGGLVQTGDSLRLSCEVSGRTFSSYSMGWFRQAQGKEREFVVAISKGGYKYDSVSLEGRFTISKDNAKNTVYLQINSLKPEDTAVYYCASSRAYGSSRLRLADTYEYWGQGTQVTVSS
- HUVEC Erk phosphorylation, % inhibition [1]: 92%
- HUVEC Erk phosphorylation, IC50 [1]: 0.19 nM
- HUVEC proliferation, % inhibition [2]: 95%
- HUVEC proliferation, IC50 [2]: 0.22 nM

B2: VEGFBII021 (VHH, not shown: small tags and cut ends)
chain: EVQLVESGGGLVQTGDSLRLSCEVSGRTFSSYSMGWFRQAQGKEREFVVAISKGGYKYDSVSLEGRFTISKDNAKNTVYLQINSLKPEDTAVYYCASSRAYGSSRLRLADTYEYWGQGTQVTVSSGGGGSGGGGSGGGGSGGGGSGGGGSGGGGSGGGGSGGGGSEVQLVESGGGLVQPGGSLRLSCVASGIRFMSMAWYRQAPGKHRELVARISSGGTTAYVDSVKGRFTISRDNSKNTVYLQMNSLKAEDTAVYYCNTFSSRPNPWGAGTQVTVSS
- HUVEC Erk phosphorylation, % inhibition [1]: 103%
- HUVEC Erk phosphorylation, IC50 [1]: 0.21 nM
- HUVEC proliferation, % inhibition [2]: 98%
- HUVEC proliferation, IC50 [2]: 0.4 nM

B3: VEGFBII23A03 (VHH, not shown: small tags and cut ends)
VHH: EVQLVESGGGLVQPGDSLKLSCVASGRTFSSYSMGWFRQAQGKEREFVVAISSGGYIYDSVSLQGRFTISRDNTKNTVYLQTPSLKPEDTAVYYCAASRAYGSSRLRLADTYDYWGQGTQVTVSS
- kd(fast) [3]: 0.015
- kd(slow) [3]: 3.2e-05

B5: VEGFBII22A11 (VHH, not shown: small tags and cut ends)
VHH: B3 VHH with V23A, A24F, G35A, Y56F, S60A, Q64E
- kd(fast) [3]: 0.022
- kd(slow) [3]: 4.7e-05

B6: VEGFBII41B05 (VHH, not shown: small tags and cut ends)
VHH: B3 VHH with D16G, K19R, V23A, A24F, Y56F, S60A, Q64E
- kd(fast) [3]: 0.019
- kd(slow) [3]: 0.00012

B8: VEGFBII61A01 (VHH, not shown: small tags and cut ends)
VHH: B3 VHH with P14A, D16G, K19R, V23A, A24F, I57K, S60A, Q64E, G102A
- kd(fast) [3]: 0.0074
- kd(slow) [3]: 0.00017

B11: VEGFBII23E05 (VHH, not shown: small tags and cut ends)
VHH: B3 VHH with G8E, F29S
- kd(fast) [3]: 0.015
- kd(slow) [3]: 6.9e-05

B14: VEGFBII41G03 (VHH, not shown: small tags and cut ends)
VHH: B3 VHH with V23A, A24F, G35A, Y56F, S60A, Q64E, D72E
- kd(fast) [3]: 0.012
- kd(slow) [3]: 0.00027

B15: VEGFBII23D11 (VHH, not shown: small tags and cut ends)
VHH: B3 VHH with K19R, V23A, A24F, G35A, Y56F, S60A, Q64E
- kd(fast) [3]: 0.019
- kd(slow) [3]: 5.8e-05

B16: VEGFBII42F11 (VHH, not shown: small tags and cut ends)
VHH: B3 VHH with F29S, M34V
- kd(fast) [3]: 0.0091
- kd(slow) [3]: 0.0005

B17: VEGFBII27D08 (VHH, not shown: small tags and cut ends)
VHH: B3 VHH with P14T, K19R, V23A, I57K, Q64E, K75Q, T82I, P83N, S104G
- kd(fast) [3]: 0.024
- kd(slow) [3]: 8.1e-05

B18: VEGFBII42D05 (VHH, not shown: small tags and cut ends)
VHH: EVQLVESGGGLVQPGDSLKLSCAFSGRTFSSYSMGWFRQAQGKEREFVVAISSSGGYIYDSVSLEGRFTISRDNTKNTVYLQTPSLKPEDTAVYYCAASRAYGSSRLRLADTYDYWGQGTQVTVSS
- kd(fast) [3]: 0.033
- kd(slow) [3]: 0.00015

B24: VEGFBII39E02 (VHH, not shown: small tags and cut ends)
VHH: B18 VHH with S17P, V93D
- kd(fast) [3]: 0.019
- kd(slow) [3]: 0.00024

B25: VEGFBII22A10 (VHH, not shown: small tags and cut ends)
VHH: B18 VHH with V93D
- kd(fast) [3]: 0.037
- kd(slow) [3]: 4e-05

B30: VEGFBII40H10 (VHH, not shown: small tags and cut ends)
VHH: B18 VHH with V5M, V93D
- kd(fast) [3]: 0.014
- kd(slow) [3]: 0.00029

B32: VEGFBII42A05 (VHH, not shown: small tags and cut ends)
VHH: B18 VHH with T83M, V93D
- kd(fast) [3]: 0.016
- kd(slow) [3]: 0.00034

B33: VEGFBII22B06 (VHH, not shown: small tags and cut ends)
VHH: B18 VHH with F24A
- kd(fast) [3]: 0.038
- kd(slow) [3]: 9e-05

The next lines start with the values.

- kd(fast) [3]: 0.013
- kd(slow) [3]: 5e-05
B4: VEGFBII23A08 (VHH, not shown: small tags and cut ends)
VHH: B3 VHH with P14T, K19R, S53N, I57K, Q64E, T82I, P83N

- kd(fast) [3]: 0.018
- kd(slow) [3]: 0.00011
B7: VEGFBII22E04 (VHH, not shown: small tags and cut ends)
VHH: B3 VHH with F29S, Y56S, G102A

- kd(fast) [3]: 0.012
- kd(slow) [3]: 9.8e-05
B9: VEGFBII40F02 (VHH, not shown: small tags and cut ends)
VHH: B3 VHH with V23A, A24F, G35A, Y56F, S60A, Q64E, D89G

- kd(fast) [3]: 0.013
- kd(slow) [3]: 3.8e-05
B10: VEGFBII27G07 (VHH, not shown: small tags and cut ends)
VHH: B3 VHH with F29S, K43Q

- kd(fast) [3]: 0.015
- kd(slow) [3]: 7.6e-05
B12: VEGFBII30C09 (VHH, not shown: small tags and cut ends)
VHH: B3 VHH with V23I, F29S, K43Q

- kd(fast) [3]: 0.014
- kd(slow) [3]: 8.5e-05
B13: VEGFBII62F02 (VHH, not shown: small tags and cut ends)
VHH: B3 VHH with V23A, A24F, S52A, S60A, Q64E, N76D

- kd(fast) [3]: 0.037
- kd(slow) [3]: 9.3e-05
B19: VEGFBII60A09 (VHH, not shown: small tags and cut ends)
VHH: B18 VHH with K76R, V93D

- kd(fast) [3]: 0.017
- kd(slow) [3]: 0.00013
B20: VEGFBII30E07 (VHH, not shown: small tags and cut ends)
VHH: B18 VHH with P14A, K19R, F24A, G56N, I58K, T83I, P84N, A110G, Q121R

- kd(fast) [3]: 0.041
- kd(slow) [3]: 0.00011
B21: VEGFBII62A09 (VHH, not shown: small tags and cut ends)
VHH: B18 VHH with G10D, F24A

- kd(fast) [3]: 0.014
- kd(slow) [3]: 0.00074
B22: VEGFBII39G04 (VHH, not shown: small tags and cut ends)
VHH: B18 VHH with Q3P, P14A, K19R, F24A, G56N, I58K, V62A, T83I, P84N, A110G

- kd(fast) [3]: 0.018
- kd(slow) [3]: 0.00032
B23: VEGFBII40G07 (VHH, not shown: small tags and cut ends)
VHH: B18 VHH with T78A, V93D

- kd(fast) [3]: 0.028
- kd(slow) [3]: 8.6e-05
B26: VEGFBII23G03 (VHH, not shown: small tags and cut ends)
VHH: B18 VHH with S30G, T75S, A110P, D111G

- kd(fast) [3]: 0.019
- kd(slow) [3]: 0.00016
B27: VEGFBII62D10 (VHH, not shown: small tags and cut ends)
VHH: B18 VHH with G8E, P14A, K19R, F24A, G56N, I58K, T83I, P84N, A110G

- kd(fast) [3]: 0.027
- kd(slow) [3]: 4.6e-05
B28: VEGFBII23A09 (VHH, not shown: small tags and cut ends)
VHH: B18 VHH with S30G, T75S, A110P

- kd(fast) [3]: 0.033
- kd(slow) [3]: 0.00014
B29: VEGFBII56E11 (VHH, not shown: small tags and cut ends)
VHH: B18 VHH with T91A, V93D

- kd(fast) [3]: 0.027
- kd(slow) [3]: 0.00013
B31: VEGFBII23F11 (VHH, not shown: small tags and cut ends)
VHH: B18 VHH with S54G, V93D

- kd(fast) [3]: 0.037
- kd(slow) [3]: 0.00015
B34: VEGFBII31C07 (VHH, not shown: small tags and cut ends)
VHH: B18 VHH with P14T, K19R, F24A, R27G, V93D

- kd(fast) [3]: 0.016
- kd(slow) [3]: 0.00013
B35: VEGFBII23F05 (VHH, not shown: small tags and cut ends)
VHH: B18 VHH with P14A, K19R, F24A, G56N, I58K, T83I, P84N, E89K, A110G

- kd(fast) [3]: 0.015
- kd(slow) [3]: 7.8e-05
B36: VEGFBII22B07 (VHH, not shown: small tags and cut ends)
VHH: B18 VHH with P14A, K19R, F24A, G56N, I58K, T83I, P84N, A110G
